Results published in patent US20180155451A1 (published 2018).

T1: FcγRIIb extracellular domain with C-terminal His tag (human, UniProt P31994 43-217)
T1 construct: extracellular domain; soluble receptor expressed in FreeStyle293 cells, used as analyte in Biacore; also called FcgRIIb; 2b; not shown: His tag attached to the C terminus
T1 sequence (looked up): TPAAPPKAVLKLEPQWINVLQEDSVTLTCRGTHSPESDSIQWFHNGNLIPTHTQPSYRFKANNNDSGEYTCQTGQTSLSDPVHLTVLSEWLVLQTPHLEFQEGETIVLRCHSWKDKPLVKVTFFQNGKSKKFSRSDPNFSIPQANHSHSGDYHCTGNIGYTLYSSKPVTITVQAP

B1: GpH7-A5/GpH7-B3 variant D270_07I/GpL16-k0 (antibody, human IgG1, kappa)
heavy 1: not shown
heavy 2: not shown
light: DIVMTQSPLSLPVTPGEPASISCQASESLVHSNRNTYLHWYLQKPGQSPQLLIYKVSNRFSGVPDRFSGSGSGTDFTLKISRVEAEDVGVYYCSQNTHVPPTFGQGTKVEIERTVAAPSVFIFPPSDEQLKSGTASVVCLLNNFYPREAKVQWKVDNALQSGNSQESVTEQDSKDSTYSLSSTLTLSKADYEKHKVYACEVTHQGLSSPVTKSFNRGEC
notes: heterodimerized anti-glypican-3 IgG1; alteration in the GpH7-B3 chain only; also called He Ab
B2: GpH7-A5/GpH7-B3 variant D270_18N/GpL16-k0 (antibody, human IgG1, kappa)
heavy 1: not shown
heavy 2: not shown
light: B1 light
notes: as for B1
B3: GpH7-A5/GpH7-B3 variant E333_06M/GpL16-k0 (antibody, human IgG1, kappa)
heavy 1: not shown
heavy 2: not shown
light: B1 light
notes: as for B1
B4: GpH7-A5/GpH7-B3 variant S324_08L/GpL16-k0 (antibody, human IgG1, kappa)
heavy 1: not shown
heavy 2: not shown
light: B1 light
notes: as for B1
B5: GpH7-A5/GpH7-B3 variant Q295_15Y/GpL16-k0 (antibody, human IgG1, kappa)
heavy 1: not shown
heavy 2: not shown
light: B1 light
notes: as for B1
B6: GpH7-A5/GpH7-B3 variant D270_08L/GpL16-k0 (antibody, human IgG1, kappa)
heavy 1: not shown
heavy 2: not shown
light: B1 light
notes: as for B1
B7: GpH7-A5/GpH7-B3 variant D270_12R/GpL16-k0 (antibody, human IgG1, kappa)
heavy 1: not shown
heavy 2: not shown
light: B1 light
notes: as for B1
B8: GpH7-A5/GpH7-B3 variant D270_11K/GpL16-k0 (antibody, human IgG1, kappa)
heavy 1: not shown
heavy 2: not shown
light: B1 light
notes: as for B1
B9: GpH7-A5/GpH7-B3 variant E333_07I/GpL16-k0 (antibody, human IgG1, kappa)
heavy 1: not shown
heavy 2: not shown
light: B1 light
notes: as for B1
B10: GpH7-A5/GpH7-B3 variant D270_14T/GpL16-k0 (antibody, human IgG1, kappa)
heavy 1: not shown
heavy 2: not shown
light: B1 light
notes: as for B1
B11: GpH7-A5/GpH7-B3 variant I332_12R/GpL16-k0 (antibody, human IgG1, kappa)
heavy 1: not shown
heavy 2: not shown
light: B1 light
notes: as for B1
B12: GpH7-A5/GpH7-B3 variant E333_03V/GpL16-k0 (antibody, human IgG1, kappa)
heavy 1: not shown
heavy 2: not shown
light: B1 light
notes: as for B1
B13: GpH7-A5/GpH7-B3 variant D270_16H/GpL16-k0 (antibody, human IgG1, kappa)
heavy 1: not shown
heavy 2: not shown
light: B1 light
notes: as for B1
B14: GpH7-A5/GpH7-B3 variant Q295_04F/GpL16-k0 (antibody, human IgG1, kappa)
heavy 1: not shown
heavy 2: not shown
light: B1 light
notes: as for B1
B15: GpH7-A5/GpH7-B3 variant E333_02A/GpL16-k0 (antibody, human IgG1, kappa)
heavy 1: not shown
heavy 2: not shown
light: B1 light
notes: as for B1
B16: GpH7-A5/GpH7-B3 variant D270_20W/GpL16-k0 (antibody, human IgG1, kappa)
heavy 1: not shown
heavy 2: not shown
light: B1 light
notes: as for B1
B17: GpH7-A5/GpH7-B3 variant S324_15Y/GpL16-k0 (antibody, human IgG1, kappa)
heavy 1: not shown
heavy 2: not shown
light: B1 light
notes: as for B1
B18: GpH7-A5/GpH7-B3 variant E333_01G/GpL16-k0 (antibody, human IgG1, kappa)
heavy 1: not shown
heavy 2: not shown
light: B1 light
notes: as for B1
B19: GpH7-A5/GpH7-B3 variant Q295_01G/GpL16-k0 (antibody, human IgG1, kappa)
heavy 1: not shown
heavy 2: not shown
light: B1 light
notes: as for B1
B20: GpH7-A5/GpH7-B3 variant S324_14T/GpL16-k0 (antibody, human IgG1, kappa)
heavy 1: not shown
heavy 2: not shown
light: B1 light
notes: as for B1
B21: GpH7-A5/GpH7-B3 variant P271_15Y/GpL16-k0 (antibody, human IgG1, kappa)
heavy 1: not shown
heavy 2: not shown
light: B1 light
notes: as for B1
B22: GpH7-A5/GpH7-B3 variant Q295_13S/GpL16-k0 (antibody, human IgG1, kappa)
heavy 1: not shown
heavy 2: not shown
light: B1 light
notes: as for B1
B23: GpH7-A5/GpH7-B3 variant P271_20W/GpL16-k0 (antibody, human IgG1, kappa)
heavy 1: not shown
heavy 2: not shown
light: B1 light
notes: as for B1
B24: GpH7-A5/GpH7-B3 variant Q295_09D/GpL16-k0 (antibody, human IgG1, kappa)
heavy 1: not shown
heavy 2: not shown
light: B1 light
notes: as for B1

biological target: T2, FcγRIa extracellular domain with C-terminal His tag (human, UniProt P12314 16-292); test: SPR (Biacore), antibody captured on antigen peptide chip, FcγR as analyte; relative binding
T2 construct: extracellular domain; soluble receptor expressed in FreeStyle293 cells, used as analyte in Biacore; also called FcgRI; 1a; not shown: His tag attached to the C terminus
T2 sequence (P12314 16-292): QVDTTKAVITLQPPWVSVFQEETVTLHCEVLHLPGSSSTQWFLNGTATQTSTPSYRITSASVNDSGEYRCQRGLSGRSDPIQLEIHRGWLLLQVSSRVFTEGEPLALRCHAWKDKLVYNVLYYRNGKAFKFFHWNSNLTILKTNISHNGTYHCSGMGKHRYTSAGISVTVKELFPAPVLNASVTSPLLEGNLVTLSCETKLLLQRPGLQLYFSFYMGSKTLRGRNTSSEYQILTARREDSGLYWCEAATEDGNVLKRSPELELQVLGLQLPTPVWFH

He/Con_1a	Binder
74.6 % of control GpH7-A5/GpH7-B3/GpL16-k0 (=100)	B1
67.8 % of control GpH7-A5/GpH7-B3/GpL16-k0 (=100)	B2
102 % of control GpH7-A5/GpH7-B3/GpL16-k0 (=100)	B3
103 % of control GpH7-A5/GpH7-B3/GpL16-k0 (=100)	B4
102 % of control GpH7-A5/GpH7-B3/GpL16-k0 (=100)	B5
73.5 % of control GpH7-A5/GpH7-B3/GpL16-k0 (=100)	B6
66.3 % of control GpH7-A5/GpH7-B3/GpL16-k0 (=100)	B7
58.4 % of control GpH7-A5/GpH7-B3/GpL16-k0 (=100)	B8
102 % of control GpH7-A5/GpH7-B3/GpL16-k0 (=100)	B9
70.6 % of control GpH7-A5/GpH7-B3/GpL16-k0 (=100)	B10
100 % of control GpH7-A5/GpH7-B3/GpL16-k0 (=100)	B11
105 % of control GpH7-A5/GpH7-B3/GpL16-k0 (=100)	B12
66 % of control GpH7-A5/GpH7-B3/GpL16-k0 (=100)	B13
102 % of control GpH7-A5/GpH7-B3/GpL16-k0 (=100)	B14
103 % of control GpH7-A5/GpH7-B3/GpL16-k0 (=100)	B15
68 % of control GpH7-A5/GpH7-B3/GpL16-k0 (=100)	B16
114 % of control GpH7-A5/GpH7-B3/GpL16-k0 (=100)	B17
103 % of control GpH7-A5/GpH7-B3/GpL16-k0 (=100)	B18
97.6 % of control GpH7-A5/GpH7-B3/GpL16-k0 (=100)	B19
121 % of control GpH7-A5/GpH7-B3/GpL16-k0 (=100)	B20
103 % of control GpH7-A5/GpH7-B3/GpL16-k0 (=100)	B21
102 % of control GpH7-A5/GpH7-B3/GpL16-k0 (=100)	B22
103 % of control GpH7-A5/GpH7-B3/GpL16-k0 (=100)	B23
100 % of control GpH7-A5/GpH7-B3/GpL16-k0 (=100)	B24

biological target: T1, FcγRIIb extracellular domain with …; test: as above

He/Con_2b	Binder
41.5 % of control GpH7-A5/GpH7-B3/GpL16-k0 (=100)	B1
40.3 % of control GpH7-A5/GpH7-B3/GpL16-k0 (=100)	B2
85.4 % of control GpH7-A5/GpH7-B3/GpL16-k0 (=100)	B3
89.6 % of control GpH7-A5/GpH7-B3/GpL16-k0 (=100)	B4
65.4 % of control GpH7-A5/GpH7-B3/GpL16-k0 (=100)	B5
53.6 % of control GpH7-A5/GpH7-B3/GpL16-k0 (=100)	B6
18.3 % of control GpH7-A5/GpH7-B3/GpL16-k0 (=100)	B7
20.3 % of control GpH7-A5/GpH7-B3/GpL16-k0 (=100)	B8
96.2 % of control GpH7-A5/GpH7-B3/GpL16-k0 (=100)	B9
57.8 % of control GpH7-A5/GpH7-B3/GpL16-k0 (=100)	B10
48.9 % of control GpH7-A5/GpH7-B3/GpL16-k0 (=100)	B11
93.2 % of control GpH7-A5/GpH7-B3/GpL16-k0 (=100)	B12
47.2 % of control GpH7-A5/GpH7-B3/GpL16-k0 (=100)	B13
64.7 % of control GpH7-A5/GpH7-B3/GpL16-k0 (=100)	B14
83.8 % of control GpH7-A5/GpH7-B3/GpL16-k0 (=100)	B15
34.7 % of control GpH7-A5/GpH7-B3/GpL16-k0 (=100)	B16
88.2 % of control GpH7-A5/GpH7-B3/GpL16-k0 (=100)	B17
81.4 % of control GpH7-A5/GpH7-B3/GpL16-k0 (=100)	B18
46 % of control GpH7-A5/GpH7-B3/GpL16-k0 (=100)	B19
88.4 % of control GpH7-A5/GpH7-B3/GpL16-k0 (=100)	B20
52.3 % of control GpH7-A5/GpH7-B3/GpL16-k0 (=100)	B21
56.9 % of control GpH7-A5/GpH7-B3/GpL16-k0 (=100)	B22
58.1 % of control GpH7-A5/GpH7-B3/GpL16-k0 (=100)	B23
60.8 % of control GpH7-A5/GpH7-B3/GpL16-k0 (=100)	B24
